To fix the notation:
T1: mouse LRP6 (AA 20-1366) with a 6xHis tag (mouse, UniProt O88572 20-1366)
T1 construct: mouse LRP6 extracellular domain, AA 20-1366; also called full length extracellular domain of mouse LRP6; source: bought: Bio-Techne
T1 sequence (looked up): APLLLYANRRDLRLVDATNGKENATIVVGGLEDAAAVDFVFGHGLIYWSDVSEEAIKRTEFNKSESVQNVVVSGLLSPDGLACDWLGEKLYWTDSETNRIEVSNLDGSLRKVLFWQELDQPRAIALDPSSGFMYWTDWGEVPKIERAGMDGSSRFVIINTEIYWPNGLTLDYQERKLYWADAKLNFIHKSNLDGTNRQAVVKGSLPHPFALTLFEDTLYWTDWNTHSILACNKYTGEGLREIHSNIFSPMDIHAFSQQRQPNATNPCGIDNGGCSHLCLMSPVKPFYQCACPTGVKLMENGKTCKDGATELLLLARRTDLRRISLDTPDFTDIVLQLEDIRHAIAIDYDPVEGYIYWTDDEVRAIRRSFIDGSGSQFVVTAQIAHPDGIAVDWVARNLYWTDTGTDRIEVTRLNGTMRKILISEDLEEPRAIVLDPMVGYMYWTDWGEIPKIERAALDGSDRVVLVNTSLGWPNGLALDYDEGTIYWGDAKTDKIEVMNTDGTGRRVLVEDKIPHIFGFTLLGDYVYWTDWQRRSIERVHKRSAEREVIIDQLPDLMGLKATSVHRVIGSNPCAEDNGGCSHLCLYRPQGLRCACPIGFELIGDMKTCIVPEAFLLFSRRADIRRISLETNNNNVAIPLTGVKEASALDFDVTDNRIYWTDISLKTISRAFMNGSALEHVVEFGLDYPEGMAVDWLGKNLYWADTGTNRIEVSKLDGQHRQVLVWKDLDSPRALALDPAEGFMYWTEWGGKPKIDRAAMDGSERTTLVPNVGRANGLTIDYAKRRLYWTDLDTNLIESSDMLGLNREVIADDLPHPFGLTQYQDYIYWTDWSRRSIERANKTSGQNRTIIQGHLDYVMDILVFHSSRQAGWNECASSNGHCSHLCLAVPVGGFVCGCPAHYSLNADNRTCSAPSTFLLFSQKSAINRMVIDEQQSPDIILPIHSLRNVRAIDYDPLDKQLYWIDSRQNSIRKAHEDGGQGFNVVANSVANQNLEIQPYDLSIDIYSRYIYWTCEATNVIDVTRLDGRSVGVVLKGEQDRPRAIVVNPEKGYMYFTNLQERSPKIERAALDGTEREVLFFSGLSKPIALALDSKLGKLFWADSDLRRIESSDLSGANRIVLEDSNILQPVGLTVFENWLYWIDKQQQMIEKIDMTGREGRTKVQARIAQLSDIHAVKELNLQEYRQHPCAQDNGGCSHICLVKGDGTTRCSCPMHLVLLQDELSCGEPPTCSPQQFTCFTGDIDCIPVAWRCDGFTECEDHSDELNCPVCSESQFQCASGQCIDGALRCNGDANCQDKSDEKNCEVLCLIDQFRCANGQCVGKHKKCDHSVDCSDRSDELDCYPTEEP

T2: human LRP6 (AA 20-1368) tagged with human IgG1 Fc (human, UniProt O75581 20-1368)
T2 construct: human LRP6, AA 20-1368; the methods call it full-length, the results the extracellular domain; also called human LRP6-Fc; human LRP6 extracellular domain; source: bought: Bio-Techne
T2 sequence (looked up): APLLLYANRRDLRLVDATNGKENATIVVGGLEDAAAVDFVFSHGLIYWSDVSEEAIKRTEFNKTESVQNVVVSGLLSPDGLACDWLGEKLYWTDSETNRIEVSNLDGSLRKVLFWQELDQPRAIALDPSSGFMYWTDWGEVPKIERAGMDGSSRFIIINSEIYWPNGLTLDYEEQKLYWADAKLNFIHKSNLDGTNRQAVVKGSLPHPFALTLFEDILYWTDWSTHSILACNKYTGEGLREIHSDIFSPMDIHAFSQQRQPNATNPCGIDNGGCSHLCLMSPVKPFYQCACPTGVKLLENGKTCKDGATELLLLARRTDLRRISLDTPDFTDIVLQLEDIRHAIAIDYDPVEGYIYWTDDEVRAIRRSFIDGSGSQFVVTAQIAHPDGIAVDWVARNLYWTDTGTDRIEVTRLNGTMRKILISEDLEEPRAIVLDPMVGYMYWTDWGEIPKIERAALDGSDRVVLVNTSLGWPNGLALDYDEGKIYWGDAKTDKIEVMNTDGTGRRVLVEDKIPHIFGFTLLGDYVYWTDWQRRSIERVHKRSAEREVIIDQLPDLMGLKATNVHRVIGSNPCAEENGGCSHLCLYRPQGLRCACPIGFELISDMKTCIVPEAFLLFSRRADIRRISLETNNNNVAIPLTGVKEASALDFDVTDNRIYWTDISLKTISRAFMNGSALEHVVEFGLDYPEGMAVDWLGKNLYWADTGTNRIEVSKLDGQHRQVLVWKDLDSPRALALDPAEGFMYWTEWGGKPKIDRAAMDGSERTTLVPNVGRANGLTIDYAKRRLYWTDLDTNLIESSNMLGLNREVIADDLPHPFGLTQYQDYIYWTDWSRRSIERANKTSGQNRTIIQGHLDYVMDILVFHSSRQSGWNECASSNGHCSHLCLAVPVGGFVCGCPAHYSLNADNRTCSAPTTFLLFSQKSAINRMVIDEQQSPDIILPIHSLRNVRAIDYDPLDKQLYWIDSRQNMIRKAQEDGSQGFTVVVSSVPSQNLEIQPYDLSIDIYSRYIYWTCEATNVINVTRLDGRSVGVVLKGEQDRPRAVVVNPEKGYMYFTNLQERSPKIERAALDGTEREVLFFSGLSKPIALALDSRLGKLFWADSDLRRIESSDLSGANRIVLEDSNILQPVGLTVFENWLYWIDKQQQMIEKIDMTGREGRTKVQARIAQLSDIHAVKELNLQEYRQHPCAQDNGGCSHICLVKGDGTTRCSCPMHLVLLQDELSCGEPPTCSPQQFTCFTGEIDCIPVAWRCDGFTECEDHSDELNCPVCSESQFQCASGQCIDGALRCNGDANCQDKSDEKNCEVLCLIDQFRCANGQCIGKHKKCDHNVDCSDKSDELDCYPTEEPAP

B1: AAV9-X1.1 capsid (complex, adeno-associated virus 9, UniProt Q6JC40 1-736, looked up)
chain: MAADGYLPDWLEDNLSEGIREWWALKPGAPQPKANQQHQDNARGLVLPGYKYLGPGNGLDKGEPVNAADAAALEHDKAYDQQLKAGDNPYLKYNHADAEFQERLKEDTSFGGNLGRAVFQAKKRLLEPLGLVEEAAKTAPGKKRPVEQSPQEPDSSAGIGKSGAQPAKKRLNFGQTGDTESVPDPQPIGEPPAAPSGVGSLTMASGGGAPVADNNEGADGVGSSSGNWHCDSQWLGDRVITTSTRTWALPTYNNHLYKQISNSTSGGSSNDNAYFGYSTPWGYFDFNRFHCHFSPRDWQRLINNNWGFRPKRLNFKLFNIQVKEVTDNNGVKTIANNLTSTVQVFTDSDYQLPYVLGSAHEGCLPPFPADVFMIPQYGYLTLNDGSQAVGRSSFYCLEYFPSQMLRTGNNFQFSYEFENVPFHSSYAHSQSLDRLMNPLIDQYLYYLSKTIDGAATKNQTLKFSVAGPSNMAVQGRNYIPGPSYRQQRVSTTVTQNNNSEFAWPGASSWALNGRNSLMNPGPAMASHKEGEDRFFPLSGSLIFGKQGTGRDNVDADKVMITNEEEIKTTNPVATESYGQVATNHQSAQGNNTRSVAQAQTGWVQNQGILPGMVWQDRDVYLQGPIWAKIPHTDGNFHPSPLMGGFGMKHPPPQILIKNTPVPADPPTAFNKDKLNSFITQYSTGQVSVEIEWELQKENSKRWNPEIQYTSNYYKSNNVEFAVNTEGVYSEPRPIGTRYLTRNL
notes: AAV9 capsid protein VP1 with changes in VR-IV and VR-VIII; numbers count on VP1; also called AAV-X1.1; source: HEK293 cells, triple transfected, purified (iodixanol gradient); copies: 60
B2: mouse LRP6-E1E2 (N-half of the extracellular domain, AA 20-628) tagged with mouse IgG2a Fc (Fc fusion, UniProt O88572 20-628, looked up)
chain: APLLLYANRRDLRLVDATNGKENATIVVGGLEDAAAVDFVFGHGLIYWSDVSEEAIKRTEFNKSESVQNVVVSGLLSPDGLACDWLGEKLYWTDSETNRIEVSNLDGSLRKVLFWQELDQPRAIALDPSSGFMYWTDWGEVPKIERAGMDGSSRFVIINTEIYWPNGLTLDYQERKLYWADAKLNFIHKSNLDGTNRQAVVKGSLPHPFALTLFEDTLYWTDWNTHSILACNKYTGEGLREIHSNIFSPMDIHAFSQQRQPNATNPCGIDNGGCSHLCLMSPVKPFYQCACPTGVKLMENGKTCKDGATELLLLARRTDLRRISLDTPDFTDIVLQLEDIRHAIAIDYDPVEGYIYWTDDEVRAIRRSFIDGSGSQFVVTAQIAHPDGIAVDWVARNLYWTDTGTDRIEVTRLNGTMRKILISEDLEEPRAIVLDPMVGYMYWTDWGEIPKIERAALDGSDRVVLVNTSLGWPNGLALDYDEGTIYWGDAKTDKIEVMNTDGTGRRVLVEDKIPHIFGFTLLGDYVYWTDWQRRSIERVHKRSAEREVIIDQLPDLMGLKATSVHRVIGSNPCAEDNGGCSHLCLYRPQGLRCACPIGFELIGDMKTCI
notes: mouse LRP6, YWTD domains 1 and 2 (E1E2), AA 20-628; source: bought: Bio-Techne
B3: AAV.CAP-Mac capsid (complex, adeno-associated virus 9, UniProt Q6JC40 1-736, looked up)
chain: MAADGYLPDWLEDNLSEGIREWWALKPGAPQPKANQQHQDNARGLVLPGYKYLGPGNGLDKGEPVNAADAAALEHDKAYDQQLKAGDNPYLKYNHADAEFQERLKEDTSFGGNLGRAVFQAKKRLLEPLGLVEEAAKTAPGKKRPVEQSPQEPDSSAGIGKSGAQPAKKRLNFGQTGDTESVPDPQPIGEPPAAPSGVGSLTMASGGGAPVADNNEGADGVGSSSGNWHCDSQWLGDRVITTSTRTWALPTYNNHLYKQISNSTSGGSSNDNAYFGYSTPWGYFDFNRFHCHFSPRDWQRLINNNWGFRPKRLNFKLFNIQVKEVTDNNGVKTIANNLTSTVQVFTDSDYQLPYVLGSAHEGCLPPFPADVFMIPQYGYLTLNDGSQAVGRSSFYCLEYFPSQMLRTGNNFQFSYEFENVPFHSSYAHSQSLDRLMNPLIDQYLYYLSKTINGSGQNQQTLKFSVAGPSNMAVQGRNYIPGPSYRQQRVSTTVTQNNNSEFAWPGASSWALNGRNSLMNPGPAMASHKEGEDRFFPLSGSLIFGKQGTGRDNVDADKVMITNEEEIKTTNPVATESYGQVATNHQSAQLNTTKPIAQAQTGWVQNQGILPGMVWQDRDVYLQGPIWAKIPHTDGNFHPSPLMGGFGMKHPPPQILIKNTPVPADPPTAFNKDKLNSFITQYSTGQVSVEIEWELQKENSKRWNPEIQYTSNYYKSNNVEFAVNTEGVYSEPRPIGTRYLTRNL
notes: AAV9 capsid protein VP1 with an insertion in VR-VIII; numbers count on VP1; source: HEK293 cells, triple transfected, purified (iodixanol gradient); copies: 60

Settings in all cases: both partners purified
Assay [1] concerns the target T1, mouse LRP6 (AA 20-1366) with a 6xHis tag. The assay can be described thus: pull-down; prey AAVs mixed with His-tagged bait protein and Ni-NTA resin in DPBS with 20 mM imidazole, 1 h at 4 °C; eluate analysed by Western blot with anti-VP1/VP2/VP3 and anti-6xHis. On the technique in general: In western blotting, separated proteins are transferred to a membrane and probed.

The target of assay [2] is T2, human LRP6 (AA 20-1368) tagged with …. The assay can be described thus: SPR; Sierra SPR-32, protein A sensor chip; human LRP6-Fc captured at 1200-1500 RU in HBS-EP+ (Fig. 4b); AAV injected at 10 µL per min for 240 s, 600 s dissociation; AAV from 2.4 × 10^12 v.g. per mL in twofold dilutions; apparent affinity, avid format.
The target of the assay “AAV.CAP-Mac capsid” is B3. The assay can be described thus: SPR; Sierra SPR-32, protein A sensor chip; Fc-fusion protein captured at 600-800 RU in HBS-EP+; AAV injected at 10 µL per min for 240 s, 600 s dissociation; AAV from 2.4 × 10^12 v.g. per mL in twofold dilutions; avid format.
The assay “AAV9-X1.1 capsid” concerns the target B1. The assay is described as above.
A further assay deals with T3, AAV-BI30 capsid (adeno-associated virus 9, UniProt Q6JC40 1-736, VR VIII AA587-590 AQ - - - - - - - AQ to AQNNSTRGGAQ).
T3 construct: AAV9 capsid protein VP1 with an insertion in VR-VIII; numbers count on VP1; source: HEK293 cells, triple transfected, purified (iodixanol gradient); copies: 60
The description is as above.

B1: the binding result in assay [1] and in assay [2] was “binds” throughout.
Turning to B2, the binding result with AAV.CAP-Mac capsid, with AAV9-X1.1 capsid and with AAV-BI30 capsid was “binds” in each case.
In the case of B3, the binding result in assay [1] and in assay [2] was “binds” each time.
